Columns and labels:
[1] = target: NXT007 in the dKiHv14 format (anti-FIXa/FX bispecific humanized IgG4, kappa/lambda) (human); test: SPR
[2] = target: anti-FX antibodies with the V1 or V2 mutation pair; test: SPR

| FcRn binding ability after acid treatment, relative to the initial sample [1] [%] | fold increase in KD against the parent [2] [times] | Substance |
| --- | --- | --- |
| 80 |  | recombinant human FcRn (from UniProt P55899 24-365) (receptor) |
|  | 1.3 to 1.4 | human FX (Enzyme Research Laboratories, HFX 1010) (natural protein) |

From PMC10283433
